According to patent US20230406885A1, “CYCLIC PEPTIDES FOR TRAPPING INTERLEUKIN-1 BETA” (MERCK SHARP & DOHME LLC, priority 2022, published 2023):
*1 amine or outer side, *2 acyl side, *3 side chain or, on linkers, in order; H or OH if unused. [ ]: non-standard residue; d: D form. 3AzaPhe4AcPip = (S)-3-(6-(4-acetylpiperazin-1-yl)pyridin-3-yl)-2-aminopropanoic acid, CC(=O)N1CCN(c2ccc(C[C@H](N[*:1])C(=O)[*:2])cn2)CC1; Trp(4-Cl)(βS-Me) = C[C@@H](c1c[nH]c2cccc(Cl)c12)[C@H](N)C(=O)O; Ala(piperidin-4-yl) = O=C([C@H](CC1CCN([*:3])CC1)N[*:1])[*:2]; Pro(trans-4-NH2) = O=C([C@@H]1C[C@@H](N[*:3])CN1[*:1])[*:2]; Bip(4'-COOH) = N[C@@H](Cc1ccc(-c2ccc(C(=O)O)cc2)cc1)C(=O)O; Phe(3-CH2NH2) = O=C([C@H](Cc1cccc(CN[*:3])c1)N[*:1])[*:2]; 1Nal(3S-Me) = C[C@@H](c1cccc2ccccc12)[C@H](N)C(=O)O; Phe(4-COOH) = N[C@@H](Cc1ccc(C(=O)O)cc1)C(=O)O; h3Pal(5-CN) = N#Cc1cncc(CC[C@H](N)C(=O)O)c1; hTyr = N[C@@H](CCc1ccc(O)cc1)C(=O)O; 3Pal = N[C@@H](Cc1cccnc1)C(=O)O; 4Pal = N[C@@H](Cc1ccncc1)C(=O)O; dDab = NCC[C@@H](N)C(=O)O; dNMeA = CN[C@H](C)C(=O)O; Dap = NC[C@H](N)C(=O)O

biological target: Recombinant human IL-1β (BioLegend 579404) (human, UniProt P01584 117-269); assay: cell-based or functional assay

Binder | MRC5 IC50 [nM]
cyclo([Bip(4'-COOH)]W[Phe(4-COOH)]G[Pro(trans-4-NH2)][Trp(4-Cl)(βS-Me)]D[dNMeA]G[Bip(4'-COOH)][3Pal]S[dA][hTyr]) (SMILES C[C@@H]1C(=O)NCC(=O)N[C@@H](Cc2ccc(-c3ccc(C(=O)O)cc3)cc2)C(=O)N[C@@H](Cc2cccnc2)C(=O)N[C@@H](CO)C(=O)N[C@H](C)C(=O)N[C@@H](CCc2ccc(O)cc2)C(=O)N[C@@H](Cc2ccc(-c3ccc(C(=O)O)cc3)cc2)C(=O)N[C@@H](Cc2c[nH]c3ccccc23)C(=O)N[C@@H](Cc2ccc(C(=O)O)cc2)C(=O)NCC(=O)N2C[C@H](N)C[C@H]2C(=O)N[C@@H]([C@@H](C)c2c[nH]c3cccc(Cl)c23)C(=O)N[C@@H](CC(=O)O)C(=O)N1C) [SEQ ID NO: 38] | 0.217
cyclo([Bip(4'-COOH)]W[Phe(4-COOH)]G[Pro(trans-4-NH2)][Trp(4-Cl)(βS-Me)]D[dNMeA]G[Bip(4'-COOH)][4Pal]S[dA][hTyr]) (SMILES C[C@@H]1C(=O)NCC(=O)N[C@@H](Cc2ccc(-c3ccc(C(=O)O)cc3)cc2)C(=O)N[C@@H](Cc2ccncc2)C(=O)N[C@@H](CO)C(=O)N[C@H](C)C(=O)N[C@@H](CCc2ccc(O)cc2)C(=O)N[C@@H](Cc2ccc(-c3ccc(C(=O)O)cc3)cc2)C(=O)N[C@@H](Cc2c[nH]c3ccccc23)C(=O)N[C@@H](Cc2ccc(C(=O)O)cc2)C(=O)NCC(=O)N2C[C@H](N)C[C@H]2C(=O)N[C@@H]([C@@H](C)c2c[nH]c3cccc(Cl)c23)C(=O)N[C@@H](CC(=O)O)C(=O)N1C) [SEQ ID NO: 39] | 0.232
cyclo([3AzaPhe4AcPip]W[Phe(4-COOH)]G[Pro(trans-4-NH2)][1Nal(3S-Me)]D[dNMeA]G[Bip(4'-COOH)]W[Dap][dA][h3Pal(5-CN)]) (SMILES CC(=O)N1CCN(c2ccc(C[C@@H]3NC(=O)[C@H](CCc4cncc(C#N)c4)NC(=O)[C@@H](C)NC(=O)[C@H](CN)NC(=O)[C@H](Cc4c[nH]c5ccccc45)NC(=O)[C@H](Cc4ccc(-c5ccc(C(=O)O)cc5)cc4)NC(=O)CNC(=O)[C@@H](C)N(C)C(=O)[C@H](CC(=O)O)NC(=O)[C@H]([C@@H](C)c4cccc5ccccc45)NC(=O)[C@@H]4C[C@@H](N)CN4C(=O)CNC(=O)[C@H](Cc4ccc(C(=O)O)cc4)NC(=O)[C@H](Cc4c[nH]c5ccccc45)NC3=O)cn2)CC1) [SEQ ID NO: 4] | 0.0438
cyclo([Bip(4'-COOH)]W[Phe(4-COOH)]G[Pro(trans-4-NH2)][Trp(4-Cl)(βS-Me)]D[dNMeA]G[Bip(4'-COOH)][Ala(piperidin-4-yl)]S[dA][hTyr]) (SMILES C[C@@H]1C(=O)NCC(=O)N[C@@H](Cc2ccc(-c3ccc(C(=O)O)cc3)cc2)C(=O)N[C@@H](CC2CCNCC2)C(=O)N[C@@H](CO)C(=O)N[C@H](C)C(=O)N[C@@H](CCc2ccc(O)cc2)C(=O)N[C@@H](Cc2ccc(-c3ccc(C(=O)O)cc3)cc2)C(=O)N[C@@H](Cc2c[nH]c3ccccc23)C(=O)N[C@@H](Cc2ccc(C(=O)O)cc2)C(=O)NCC(=O)N2C[C@H](N)C[C@H]2C(=O)N[C@@H]([C@@H](C)c2c[nH]c3cccc(Cl)c23)C(=O)N[C@@H](CC(=O)O)C(=O)N1C) [SEQ ID NO: 40] | 0.508
cyclo([Bip(4'-COOH)]W[Phe(4-COOH)]G[Pro(trans-4-NH2)][Trp(4-Cl)(βS-Me)]D[dNMeA]G[Bip(4'-COOH)][Dap]S[dA][hTyr]) (SMILES C[C@@H]1C(=O)NCC(=O)N[C@@H](Cc2ccc(-c3ccc(C(=O)O)cc3)cc2)C(=O)N[C@@H](CN)C(=O)N[C@@H](CO)C(=O)N[C@H](C)C(=O)N[C@@H](CCc2ccc(O)cc2)C(=O)N[C@@H](Cc2ccc(-c3ccc(C(=O)O)cc3)cc2)C(=O)N[C@@H](Cc2c[nH]c3ccccc23)C(=O)N[C@@H](Cc2ccc(C(=O)O)cc2)C(=O)NCC(=O)N2C[C@H](N)C[C@H]2C(=O)N[C@@H]([C@@H](C)c2c[nH]c3cccc(Cl)c23)C(=O)N[C@@H](CC(=O)O)C(=O)N1C) [SEQ ID NO: 41] | 0.469
cyclo([Bip(4'-COOH)]W[Phe(4-COOH)]G[Pro(trans-4-NH2)][Trp(4-Cl)(βS-Me)]D[dNMeA]G[Bip(4'-COOH)]KL[dA][hTyr]) (SMILES CC(C)C[C@@H]1NC(=O)[C@H](CCCCN)NC(=O)[C@H](Cc2ccc(-c3ccc(C(=O)O)cc3)cc2)NC(=O)CNC(=O)[C@@H](C)N(C)C(=O)[C@H](CC(=O)O)NC(=O)[C@H]([C@@H](C)c2c[nH]c3cccc(Cl)c23)NC(=O)[C@@H]2C[C@@H](N)CN2C(=O)CNC(=O)[C@H](Cc2ccc(C(=O)O)cc2)NC(=O)[C@H](Cc2c[nH]c3ccccc23)NC(=O)[C@H](Cc2ccc(-c3ccc(C(=O)O)cc3)cc2)NC(=O)[C@H](CCc2ccc(O)cc2)NC(=O)[C@@H](C)NC1=O) [SEQ ID NO: 42] | 0.627
cyclo([Bip(4'-COOH)]W[Phe(4-COOH)]G[Pro(trans-4-NH2)][Trp(4-Cl)(βS-Me)]D[dNMeA]G[Bip(4'-COOH)]KL[dDab][hTyr]) (SMILES CC(C)C[C@@H]1NC(=O)[C@H](CCCCN)NC(=O)[C@H](Cc2ccc(-c3ccc(C(=O)O)cc3)cc2)NC(=O)CNC(=O)[C@@H](C)N(C)C(=O)[C@H](CC(=O)O)NC(=O)[C@H]([C@@H](C)c2c[nH]c3cccc(Cl)c23)NC(=O)[C@@H]2C[C@@H](N)CN2C(=O)CNC(=O)[C@H](Cc2ccc(C(=O)O)cc2)NC(=O)[C@H](Cc2c[nH]c3ccccc23)NC(=O)[C@H](Cc2ccc(-c3ccc(C(=O)O)cc3)cc2)NC(=O)[C@H](CCc2ccc(O)cc2)NC(=O)[C@@H](CCN)NC1=O) [SEQ ID NO: 43] | 0.244
cyclo([Bip(4'-COOH)]W[Phe(4-COOH)]G[Pro(trans-4-NH2)][Trp(4-Cl)(βS-Me)]D[dNMeA]G[Bip(4'-COOH)]KL[dS][hTyr]) (SMILES CC(C)C[C@@H]1NC(=O)[C@H](CCCCN)NC(=O)[C@H](Cc2ccc(-c3ccc(C(=O)O)cc3)cc2)NC(=O)CNC(=O)[C@@H](C)N(C)C(=O)[C@H](CC(=O)O)NC(=O)[C@H]([C@@H](C)c2c[nH]c3cccc(Cl)c23)NC(=O)[C@@H]2C[C@@H](N)CN2C(=O)CNC(=O)[C@H](Cc2ccc(C(=O)O)cc2)NC(=O)[C@H](Cc2c[nH]c3ccccc23)NC(=O)[C@H](Cc2ccc(-c3ccc(C(=O)O)cc3)cc2)NC(=O)[C@H](CCc2ccc(O)cc2)NC(=O)[C@@H](CO)NC1=O) [SEQ ID NO: 44] | 0.132
cyclo([Bip(4'-COOH)]W[Phe(4-COOH)]G[Pro(trans-4-NH2)][Trp(4-Cl)(βS-Me)]D[dNMeA]G[Bip(4'-COOH)]KS[dA][hTyr]) (SMILES C[C@@H]1C(=O)NCC(=O)N[C@@H](Cc2ccc(-c3ccc(C(=O)O)cc3)cc2)C(=O)N[C@@H](CCCCN)C(=O)N[C@@H](CO)C(=O)N[C@H](C)C(=O)N[C@@H](CCc2ccc(O)cc2)C(=O)N[C@@H](Cc2ccc(-c3ccc(C(=O)O)cc3)cc2)C(=O)N[C@@H](Cc2c[nH]c3ccccc23)C(=O)N[C@@H](Cc2ccc(C(=O)O)cc2)C(=O)NCC(=O)N2C[C@H](N)C[C@H]2C(=O)N[C@@H]([C@@H](C)c2c[nH]c3cccc(Cl)c23)C(=O)N[C@@H](CC(=O)O)C(=O)N1C) [SEQ ID NO: 45] | 0.174
cyclo([Bip(4'-COOH)]W[Phe(4-COOH)]G[Pro(trans-4-NH2)][Trp(4-Cl)(βS-Me)]D[dNMeA]G[Bip(4'-COOH)]KS[dDab][hTyr]) (SMILES C[C@@H]1C(=O)NCC(=O)N[C@@H](Cc2ccc(-c3ccc(C(=O)O)cc3)cc2)C(=O)N[C@@H](CCCCN)C(=O)N[C@@H](CO)C(=O)N[C@H](CCN)C(=O)N[C@@H](CCc2ccc(O)cc2)C(=O)N[C@@H](Cc2ccc(-c3ccc(C(=O)O)cc3)cc2)C(=O)N[C@@H](Cc2c[nH]c3ccccc23)C(=O)N[C@@H](Cc2ccc(C(=O)O)cc2)C(=O)NCC(=O)N2C[C@H](N)C[C@H]2C(=O)N[C@@H]([C@@H](C)c2c[nH]c3cccc(Cl)c23)C(=O)N[C@@H](CC(=O)O)C(=O)N1C) [SEQ ID NO: 46] | 0.134
cyclo([Bip(4'-COOH)]W[Phe(4-COOH)]G[Pro(trans-4-NH2)][Trp(4-Cl)(βS-Me)]D[dNMeA]G[Bip(4'-COOH)]KS[dS][hTyr]) (SMILES C[C@@H]1C(=O)NCC(=O)N[C@@H](Cc2ccc(-c3ccc(C(=O)O)cc3)cc2)C(=O)N[C@@H](CCCCN)C(=O)N[C@@H](CO)C(=O)N[C@H](CO)C(=O)N[C@@H](CCc2ccc(O)cc2)C(=O)N[C@@H](Cc2ccc(-c3ccc(C(=O)O)cc3)cc2)C(=O)N[C@@H](Cc2c[nH]c3ccccc23)C(=O)N[C@@H](Cc2ccc(C(=O)O)cc2)C(=O)NCC(=O)N2C[C@H](N)C[C@H]2C(=O)N[C@@H]([C@@H](C)c2c[nH]c3cccc(Cl)c23)C(=O)N[C@@H](CC(=O)O)C(=O)N1C) [SEQ ID NO: 47] | 0.123
cyclo([Bip(4'-COOH)]W[Phe(4-COOH)]G[Pro(trans-4-NH2)][Trp(4-Cl)(βS-Me)]D[dNMeA]G[Bip(4'-COOH)][Phe(3-CH2NH2)]S[dA][hTyr]) (SMILES C[C@@H]1C(=O)NCC(=O)N[C@@H](Cc2ccc(-c3ccc(C(=O)O)cc3)cc2)C(=O)N[C@@H](Cc2cccc(CN)c2)C(=O)N[C@@H](CO)C(=O)N[C@H](C)C(=O)N[C@@H](CCc2ccc(O)cc2)C(=O)N[C@@H](Cc2ccc(-c3ccc(C(=O)O)cc3)cc2)C(=O)N[C@@H](Cc2c[nH]c3ccccc23)C(=O)N[C@@H](Cc2ccc(C(=O)O)cc2)C(=O)NCC(=O)N2C[C@H](N)C[C@H]2C(=O)N[C@@H]([C@@H](C)c2c[nH]c3cccc(Cl)c23)C(=O)N[C@@H](CC(=O)O)C(=O)N1C) [SEQ ID NO: 48] | 0.041
